The record followed here is publication PMC8215223.

The labels stand for the following.
B1: GFP-WT-HOOK3 [human] / GM130 (endogenous) [human (endogenous in HeLa)] (parent)
chain 1: MFSVESLERAELCESLLTWIQTFNVDAPCQTVEDLTNGVVMAQVLQKIDPAYFDENWLNRIKTEVGDNWRLKISNLKKILKGILDYNHEILGQQINDFTLPDVNLIGEHSDAAELGRMLQLILGCAVNCEQKQEYIQAIMMMEESVQHVVMTAIQELMSKESPVSAGNDAYVDLDRQLKKTTEELNEALSAKEEIAQRCHELDMQVAALQEEKSSLLAENQVLMERLNQSDSIEDPNSPAGRRHLQLQTQLEQLQEETFRLEAAKDDYRIRCEELEKEISELRQQNDELTTLADEAQSLKDEIDVLRHSSDKVSKLEGQVESYKKKLEDLGDLRRQVKLLEEKNTMYMQNTVSLEEELRKANAARSQLETYKRQVVELQNRLSEESKKADKLDFEYKRLKEKVDSLQKEKDRLRTERDSLKETIEELRCVQAQEGQLTTQGLMPLGSQESSDSLAAEIVTPEIREKLIRLQHENKMLKLNQEGSDNEKIALLQSLLDDANLRKNELETENRLVNQRLLEVQSQVEELQKSLQDQGSKAEDSVLLKKKLEEHLEKLHEANNELQKKRAIIEDLEPRFNNSSLKIEELQEALRKKEEEMKQMEERYKKYLEKAKSVIRTLDPKQNQGAAPEIQALKNQLQERDRLFHSLEKEYEKTKSQREMEEKYIVSAWYNMGMTLHKKAAEDRLASTGSGQSFLARQRQATSSRRSYPGHVQPATAR
chain 2: MWPQPRLPPRPAMSEETRQSKLAAAKKKLREYQQRNSPGVPTGAKKKKKIKNGSNPETTTSGGCHSPEDTPKDNAATLQPSDDTVLPGGVPSPGASLTSMAASQNHDADNVPNLMDETKTFSSTESLRQLSQQLNGLVCESATCVNGEGPASSANLKDLESRYQQLAVALDSSYVTNKQLNITIEKLKQQNQEITDQLEEEKKECHQKQGALREQLQVHIQTIGILVSEKAELQTALAHTQHAARQKEGESEDLASRLQYSRRRVGELERALSAVSTQQKKADRYNKELTKERDALRLELYKNTQSNEDLKQEKSELEEKLRVLVTEKAGMQLNLEELQKKLEMTELLLQQFSSRCEAPDANQQLQQAMEERAQLEAHLGQVMESVRQLQMERDKYAENLKGESAMWRQRMQQMSEQVHTLREEKECSMSRVQELETSLAELRNQMAEPPPPEPPAGPSEVEQQLQAEAEHLRKELEGLAGQLQAQVQDNEGLSRLNREQEERLLELERAAELWGEQAEARRQILETMQNDRTTISRALSQNRELKEQLAELQSGFVKLTNENMEITSALQSEQHVKRELGKKLGELQEKLSELKETVELKSQEAQSLQQQRDQYLGHLQQYVAAYQQLTSEKEVLHNQLLLQTQLVDQLQQQEAQGKAVAEMARQELQETQERLEAATQQNQQLRAQLSLMAHPGEGDGLDREEEEDEEEEEEEAVAVPQPMPSIPEDLESREAMVAFFNSAVASAEEEQARLRGQLKEQRVRCRRLAHLLASAQKEPEAAAPAPGTGGDSVCGETHRALQGAMEKLQSRFMELMQEKADLKERVEELEHRCIQLSGETDTIGEYIALYQSQRAVLKERHREKEEYISRLAQDKEEMKVKLLELQELVLRLVGDRNEWHGRFLAAAQNPADEPTSGAPAPQELGAANQQGDLCEVSLAGSVEPAQGEAREGSPRDNPTAQQIMQLLREMQNPRERPGLGSNPCIPFFYRADENDEVKITVI

This experiment covers variants of B1. As to the kind of experiment: coIP (co-immunoprecipitation, blot band intensity quantified). Conditions: with GM130 (endogenous) [human (endogenous in HeLa)]; HeLa cells, 100 ng/mL nocodazole for 16 hr (+); read off a plot.
As to chain 1 S238A S707A, the response is 5.5 A.U.
In the case of chain 1 S238E it was 12 A.U; in that of chain 1 S238A, 16 A.U; in that of chain 1 S707A, 16 A.U.
To chain 1 S707E belongs 11 A.U; to chain 1 S238E S707E, 6.5 A.U.
